Target: protein of the maize/soybean meal (SBM) substrate (6:4)

protease derived from Nocardiopsis sp. NRRL 18262 (SEQ ID NO: 1) (enzyme)
% dig. CP (digested protein, peptides of 1500 Dalton or below, gel filtration HPLC) in the in vitro pancreatic insufficiency digestion model (% dig. CP of total protein): 49.9

Source: patent US20120207741A1
